Experiment: yeast display, Sf9 membrane polyspecificity reagent, FACS + sequencing; frameworks hold sequencing errors
In short: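 Nanobodies from a synthetic yeast display library (Saccharomyces cerevisiae BJ5465), induced 36–48 hours with galactose, were stained 1 hour at 4 °C with 10% biotinylated, detergent-solubilized Sf9 membrane reagent, enriched on streptavidin microbeads, then FACS-sorted. Anti-HA (expression) and streptavidin (reagent binding) fluorescence set low and high (top ~1%) gates. Polyreactivity labels come from the gate of origin. Genes were colony-PCR amplified, MiSeq 2 × 250 sequenced and filtered by CDR length.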

QVQLVESGGGLVQAGGSLRLSCAASGFNFDGYAMGWYRQAPGKERELVAAITYSGGSTYYADSVKGRFTISRDNAKNTVYLQMNSLKPEDTAVYYCAAESYVYGGSDYDYWGQGTQVTVSS
polyreactivity (PSR sort gate): low polyreactivity

QVQLVESGGGLVQAGGSLRLSCAASGFNFDWYAMGWYRQAPGKERELVAAISASGGRTYYADSVKGRFTISRDNAKNTVYLQMNSLKPEDTAVYYCNKYYLVKGPYDWGQGTQVTVSS
polyreactivity (PSR sort gate): high polyreactivity

QVQLVESGGGLVQAGGSLRLSCAASGFNFGGYPMGWYRQAPGKERELVADISKRGGSTFYADSVKGRFTISRDNAKNTVYLQMNSLKPEDTAVYYCATRFFYPYWGVYEYYYWGQGTQVTVSS
polyreactivity (PSR sort gate): high polyreactivity

QVQLVESGGGLVQAGGSLRLSCAASGFNFKHYAMGWYRQAPGKERELVATITRGGSTNYADSVKGRFTISRDNAKNTVYLQMNSLKPEDTAVYYCAASDYVRYPFTRGYIYQGSDYWGQGTQVTVSS
polyreactivity (PSR sort gate): low polyreactivity

QVQLVESGGGLVQAGGSLRLSCAASGFNFNNNGMGWYRQAPGKERELDAAISYSGGRTYYADSVKGRFTISRDNAKNTLYLQMNSLKPEETAVYYFADNSYYSRYDYWGQGTQVTVSS
polyreactivity (PSR sort gate): low polyreactivity

QVQLVESGGGLVQAGGSLRLSCAASGFNFPGNAIGWYTPAPGKERELVATISSGGSTKYADSVKGRFTISRDNAKNTVYLQMNSLKPEDTAVYYFAARVYLGVFDYYYWGQGTQVTVSS
polyreactivity (PSR sort gate): low polyreactivity

QVQLVESGGGLVQAGGSLRLSCAASGFNFPHYAMGWYIQAPGKERELVAAISWSGTRTYYADSVKGRFTISRDNAKNTVYLQMNSLKPEDTAVYYCNADSITEGNSRYSHFDYWGQGTQVTVSS
polyreactivity (PSR sort gate): low polyreactivity

QVQLVESGGGLVQAGGSLRLSCAASGFNFRWYAMGWYRQAPGKESEFVAAITWRGGRTYYADSVKGRFTISRDNAKNTVYLQMNSLKPEDTAVYYCNAVYQYWHYSEGNYWGQGTQVTVSS
polyreactivity (PSR sort gate): low polyreactivity

QVQLVESGGGLVQAGGSLRLSCAASGFNFRYNAMGWYRQAPGKERELVAGISGGGTHYADSVKGRFTISRDNAKNTVYLQMNSLKPEDTAVYYCARRGGYRRNTNFYYWGQGTQVTVSS
polyreactivity (PSR sort gate): high polyreactivity

QVQLVESGGGLVQAGGSLRLSCAASGFNFSHNAMGWYRQAPGKERELVAAISGSGGRTYYADSVKGRFTISRDNAKNTVDLQMNSLKPEDTAVYYCNAGRWWRRGYGYWGQVTQVTVSS
polyreactivity (PSR sort gate): high polyreactivity

QVQLVESGGGLVQAGGSLRLSCAASGFNFTRYAMGWYRQAPGKERELVAAISSGSRTYYADSVKGRFTISRDNAKNTVYLQMISLKPEDTAVYYCAAPVYTYYGHYDSWGQGTQVTVSS
polyreactivity (PSR sort gate): high polyreactivity

QVQLVESGGGLVQAGGSLRLSCAASGFNFYFYTMGWYRQAPGKERELVAGITWSGDSTYYADSVKGRFTISRDNAKNTVYLQMNSLKPEDTAVYYCAAGFDFGTRVSKGYDYWGQGTQVTVSS
polyreactivity (PSR sort gate): low polyreactivity

QVQLVESGGGLVQAGGSLRLSCAASGFNFYGYAMGWYRQAPGKERQLVATISRGGSTTYYADSVKGRFTISRDNAKNTVYLQMNSLKPEDTAVYYCAAYNVIYTRRMYYWGQGTQVTVSS
polyreactivity (PSR sort gate): high polyreactivity

QVQLVESGGGLVQAGGSLRLSCAASGFNFYRYAMGWYRQAPGKERELVAVITGRGGTTYYSDSVKGRFTISRDNAKNTVYLQMNSLKTEDTAVYYCAAPQQQSWTYDGRYGYWGQGTKVTVSS
polyreactivity (PSR sort gate): high polyreactivity

QVQLVESGGGLVQAGGSLRLSCAASGFPFVYYVMGWYRPAPGKERELVAAINAGGGYTYYADSVKGRFTISRDNAKNTVYVQMNSLKPEDTAVYYCNARVRVRLGRNWSSYYYWGQGTQVTVSS
polyreactivity (PSR sort gate): high polyreactivity

QVQLVESGGGLVQAGGSLRLSCAASGFSFDFYTMGWYRQAPGKERELVAAITWSGDSTYYADSVKGRFTISRDNAKNTVDLQMNSLKPEDTAVYYCAVARVSQDGYRRRVTTWHDDYWGQGTQVTVSS
polyreactivity (PSR sort gate): low polyreactivity

QVQLVESGGGLVQAGGSLRLSCAASGFSFDTYAMGWYRQAPGKERELVAVISRGGSTYYADSVKGRFTISRDNAKNTVYLQMNSLKPEDTAVYYCAARSHGSYAYQYGYWGQGTQVTVSS
polyreactivity (PSR sort gate): high polyreactivity

QVQLVESGGGLVQAGGSLRLSCAASGFSFGVYAMGWSRQAPGKERELVAAISTTVGSTYYADSVKGRFTISRDNAKNTVYLQMNSLKPEDTAVYYCAAEYTGYINYYIYEYWGQGTQVTVSS
polyreactivity (PSR sort gate): low polyreactivity

QVQLVESGGGLVQAGGSLRLSCAASGFSFIDNALGWYPQAPGKERELVAAITWSGGSTYYADSVKGRFTISRDNAKNTVYLQMNSLKPEDTAVYYCAATLWFGVAGDSRYDPPEYDYWGQGTQVTVSS
polyreactivity (PSR sort gate): low polyreactivity

QVQLVESGGGLVQAGGSLRLSCAASGFSFRYYAMGWYRQAPGKERELVAAISSSGTRTYYADSVKGRFTISRDNATTTVYLQMNSLKPEDTAVYYCNAGSPTSTVDYWGQGTQVTVSS
polyreactivity (PSR sort gate): high polyreactivity

QVQLVESGGGLVQAGGSLRLSCAASGFSFSSYAMGWYRQAPGTERELVATISVNGGSTNYADSVKGRFTISRDNAKNTVYLQMNSLIPEDTAVYYCNAKSYTRRSYYTPTVPGDYWGQGTQVTVSS
polyreactivity (PSR sort gate): low polyreactivity

QVQLVESGGGLVQAGGSLRLSCAASGFSFSYYAMGWYRQAPGKERELVAAINYSGTSTYYADSVKGRFTISRDNAKNTVYLQMKSLKPEDTAVYYCAADLPYYPYLYDYWGQGTQVTVSS
polyreactivity (PSR sort gate): low polyreactivity

Source: the nanobody polyreactivity screen of Harvey et al. (2022)
